From the supplement of paper PMC10567573

B1: PPFIA4 (parent)
chain: VMTLPSDLRKHRRKLLSPVSREEN

Variants of: B1
Assay: protein stability index of a GFP-peptide fusion (GPS, HEK-293T) (PSI 1-6); higher = more stable
Details: c terminus: a fixed tail appended
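Further: lentivirally expressed fusions sorted by FACS into six bins by GFP to DsRed ratio, PSI derived from sequencing read proportions per bin multiplied by bin number.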

Protein stability index: each site, then its substitutions
M2: V 3.46; F 3.19; A 4.31; I 3.12; P 3.93; W 3.72; Q 3.06; G 4.17; Y 3.15; D 4.71; T 4.46; R 4.04; E 4.54
R9: W 3.49; C 4.01; F 3.31; T 4; H 3.9; P 4.44; A 4.01; E 4.11; L 3.59; G 4.46
L16: D 4.08; E 4.29; N 3.87; F 3.29; K 4.03; I 3.41; V 3.84; P 4.12; C 4.37; A 4.34; S 4.43; W 3.09; Q 3.75; M 4.07; G 4.43
R13: T 3.98; I 3.47; K 3.5; M 3.12; W 2.92; N 3.95; L 4.05; Q 4.27; A 4.11; C 3.49; G 3.91; V 3.78; S 4.36; P 4.33; Y 3.63
T3: D 4.12; V 2.95; Y 2.5; M 2.31; Q 2.85; H 3.52; R 3.07; A 3.92; S 3.71; L 2.32; G 3.99; W 2.26
R12: S 4.12; F 3.36; N 4.14; W 2.73; K 3.81; Y 3.35; M 3.47; L 2.95; D 4.68; G 3.86; T 4.21; V 3.41; A 3.66; H 3.92; C 3.34; P 4.34
E22: T 3.22; R 3.66; I 3.02; V 3.86; M 3.25; K 3.67; P 2.85; H 3.52; W 2.23; Y 2.93; G 3.16; Q 3.19; D 3.5
D7: R 3.31; A 2.24; G 3.62; W 2.92; S 2.98; I 2.72; K 3.19; L 2.33; Y 3.2; F 2.57; T 3.24; C 2.86; E 3.46; H 3.15; Q 3.3; V 2.84; N 3.39
V1: S 4.27; H 4.25; F 2.83; K 3.81; I 3.55; D 4.35; T 4.25; G 3.31; N 3.62; M 3.89; A 3.93; E 4.2; Y 3.21
N24: C 3.33; L 2.94; F 2.44; G 3.23; D 4.33; T 3.73; A 4.02; I 3.34; Q 4.05; M 3.07; S 3.91; V 3.27; R 3.73
E23: R 3.06; C 2.88; A 3.04; Q 2.96; F 2.59; I 3.15; Y 2.96; D 3.52; H 3.41; W 2.44; T 3.04; M 3.29; L 3.4; N 3.14
V19: D 4.57; G 4.31; R 3.69; N 3.91; A 4.06; I 3.8; S 4.21; K 3.67; M 2.98; E 4.21; T 4.18; W 2.52; L 3.43; Q 4.31
L4: Q 4.02; Y 3.45; M 3.69; S 3.94; K 4.44; W 4.09; A 4.27; E 4.37; P 4.32; D 4.14; I 3.42; N 4.23; F 3.4
P18: T 4.31; W 2.47; E 4.62; S 4.07; D 4.7; Q 2.92; L 3.44; K 4.16; N 3.72; A 4.42; Y 3.42; G 4.12; R 3.08; I 3.33
S20: C 2.69; P 3.67; Q 4.17; E 4.26; K 3.92; M 3.82; F 2.54; R 3.84; N 3.91; W 2.63; G 4.22; L 3.44; Y 2.98; V 3.23; A 3.98
K10: H 3.58; W 3.35; D 4.32; R 3.95; P 4.05; I 3.25; A 4.32; S 3.88; C 3.52; G 3.87; V 2.96; L 3.43; N 3.77; T 4.02; E 3.48
L15: S 4.94; V 3.81; K 3.94; M 4.08; T 3.9; E 4.22; N 4.38; C 3.55; P 4.11; F 4.27; W 3.5; G 4.39; H 4.02; R 3.92; Y 4.06
S6: F 3.57; H 3.52; T 3.52; A 3.93; M 3.4; E 3.85; Y 3.5; V 2.4; C 3.6; L 3.38; P 3.97; G 3.65; Q 3.63; D 4.02; N 3.51
R21: P 3.91; C 4.06; E 4.47; Q 4.36; L 3.84; V 3.91; G 4; I 3.9; M 4.09; N 3.85; F 3.54; W 3.32; D 4.16
L8: V 4.11; Q 4.05; D 4.28; G 3.56; M 4.01; E 4.35; R 4.15; W 3.22; I 4.07; Y 3.24
P5: M 2.47; Q 3.4; N 3.47; W 2.25; D 4.37; V 2.76; G 3.01; Y 2.7; F 2.1; I 2.12; E 4.18; C 2.63; K 3.4; L 2.48
K14: Y 3.1; P 4.01; A 3.61; Q 3.94; T 4.01; R 3.32; W 2.43; N 3.9; M 3.65; E 4.07; I 3.1; S 3.79; G 4.33; H 3.81; C 2.98
S17: T 4.23; Y 4.07; F 4.01; H 3.93; V 3.53; L 3.73; I 3.45; G 3.9; C 3.65; R 3.77; A 4.24; Q 4.08; M 3.48; E 3.86
H11: N 4.02; K 3.44; A 3.42; W 3.24; C 3.69; I 3.12; Y 3.35; P 4.4; G 3.79; R 3.99; M 3.49; E 4.37; T 3.79; L 3.14; F 3.46; V 3.35
